# Laboratory results taken from the supplement of paper PMC12042874.
# ± gives the uncertainty stated by the source.
# Assay: amyloid nucleation score (Sup35N fusion, yeast selection) (log enrichment); library NNK2; higher = more nucleation; inactive = no reads after selection
# Procedure, shortened: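 Using DiMSum, nucleation scores were taken as the log enrichment of output over input reads, centred on the mode score of non-aggregating sequences. The input and output reads came from Illumina sequencing of plasmid inserts, with sequences under 100 input reads excluded. The yeast were psi-negative, expressed Sup35N fused to peptides of 20 random codons, were induced with 100 μM copper sulfate for 24 hours, and were grown 7 days at 30°C on medium lacking adenine and uracil.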
row,Substance,amyloid nucleation score
1,SCDVMIRYLSLGTLSYVRAV,-0.032 ± 1.1
2,RRVYCNIIVSGVCVSGE,1.42 ± 0.12
3,ASLAEKGL,-0.497 ± 0.38
4,IVGATYHLSWLPGYTGIYRG,1.25 ± 0.47
5,ISRRHGFIILLGNDIRRVDY,0.554 ± 0.81
6,YAMCPCVYNLDSQGAC,3.85 ± 0.12
7,GVAELNLN,inactive
8,SYHAYRG,-0.064 ± 0.37
9,ALDGVRNSEMGKRVSGVCEY,0.89 ± 0.28
10,IPYEKPHRYIVNWECVAGSM,0.621 ± 0.43
11,GVPESGIFLRAHY,inactive
12,YESLYVKLVAEPQIRCMYYS,-0.152 ± 0.34
13,EMYKQVRFVVIGIIC,1.21 ± 0.24
14,HTFYVNKLPLPKL,0.875 ± 0.45
15,MNSSQGTDAKRMLYHRCSET,-0.29 ± 0.56
16,YDKDFCDRRTEPKKFVLRHA,0.092 ± 0.4
17,SHSSMVLRLVRVWCVCRG,0.342 ± 0.4
18,VSRFYCKYYSAQWIRYGRAC,-0.544 ± 0.36
19,VCYRSKASILLYGTPGGVRV,-0.184 ± 1.1
20,MSLSNDHSGAVWRRAFGYSE,0.51 ± 0.51
21,RWMRTSAGGCGSKVVWNLLG,0.682 ± 0.24
22,QYVLLTLCVRIIHGSND,inactive
23,RFYRIDAKVAYQWAYQF,3.94 ± 0.12
24,KLSYFAFFRSVDGLR,0.508 ± 0.53
25,VRVEERSVTAYRFMTKPAWW,4.88 ± 0.096

row,Substance,amyloid nucleation score
1,VWPLFAEDGCNANGVVNQVS,0.955 ± 0.22
2,IFNLSRAQTVINL,5.34 ± 0.063
3,MSVMWLASLISFQLFMAAQL,0.062 ± 0.79
4,SFKISDYDECSCFKFYMAPI,7.08 ± 0.082
5,QIRAPHGGYVYYAGVATYSN,-0.206 ± 1.1
6,LYCDECISWYAHDWLNI,0.409 ± 0.45
7,LVFHRVTWLTDNMQWKGTPG,3.2 ± 0.078
8,CLDLLWHSWASYLLAGALWW,0.94 ± 0.74
9,LVGVPNYVRMHYARLSLTAL,inactive
10,KGCVVFFRFSCNCSMICAWV,-0.668 ± 0.48
11,WLIKPVAPLSVYWSVWWSVV,0.3 ± 0.55
12,NGTLRQYDRSDYINKIGDSN,-1.02 ± 0.38
13,AFYWVWDLDSGICNVSIFRL,-0.995 ± 0.34
14,TWRVP,0.884 ± 0.55
15,ACRELVWLG,0.354 ± 0.65
16,LSNYARGRVDVTLKNYLLLE,0.476 ± 0.51
17,RVLMHHYTLANLVSLVTNFF,5.867 ± 0.043
18,KGNEY,-0.757 ± 0.64
19,KIERC,-0.077 ± 0.63
20,RGCGFRIDVGKRWRNRIKSV,inactive
21,FFLDYRENISAMLPTTR,-0.833 ± 1.1
22,CTCFVLSGSVV,2.4 ± 0.13
23,GATRALRSVTRR,3.26 ± 0.13
24,NNIGS,inactive
25,GVFSY,-0.967 ± 0.29

row,Substance,amyloid nucleation score
1,AKHERSIMVDVMSGRCSTLS,1.07 ± 0.24
2,DGVRGLYKRLRMCTTCLCTL,6.48 ± 0.079
3,PDPLWGRPFYIWIMELGSRK,2.32 ± 0.13
4,YFLLTFDILLCRAFGTAGPE,inactive
5,FCLVEVWRIYVVCWPWSVGR,0.743 ± 0.47
6,MSFYFNFIYYFYSYFTFEWF,inactive
7,DSNRMNVNRTPDGVLGGCGT,0.468 ± 0.38
8,HRSMPIRYWVVTIWYGRSDS,0.569 ± 0.41
9,KFLIWRNFLYSVIMAVAW,inactive
10,SANSRVGGLGNL,0.717 ± 0.39
11,LCPVLYT,inactive
12,SGRRLRGSKVSGWR,-1.12 ± 0.76
13,FTLLVYIFLYMMLIGNSFFM,inactive
14,WCTLFFQCRRPG,5.554 ± 0.049
15,SILSIYFDPYGCRL,0.164 ± 1.1
16,RRFPRHLASGRMPV,1.41 ± 0.32
17,IFCAGYDNPRFINLLLLPKG,3.05 ± 0.1
18,VGKMVNVDGRSPSCWSVWH,0.47 ± 0.13
19,HNYGNPWE,3 ± 0.12
20,YLVDTSCRVGWTDVYFPVRV,inactive
21,VVGSFFCQNMKHLYRELRQS,inactive
22,LRSHLEYGRLCVCTQELMRR,4.882 ± 0.041
23,CDPVSNFCIMLMCFIREYGR,1.99 ± 0.087
24,KVRFHSL,2.72 ± 0.11
25,ALENSDSELCETAWFFHFMH,0.185 ± 0.8

row,Substance,amyloid nucleation score
1,ILVSMDRLCLWAGTSASGFS,0.278 ± 0.55
2,SSRLALEVDKATKRVW,-0.474 ± 1.1
3,TSTTYRLYKLGQFLARPANQ,-0.637 ± 1.1
4,IFRSSTLIDLKDLGLTSH,1.27 ± 0.096
5,AEYKCAFFMSLNAVALDKRY,3.2 ± 0.12
6,VDGVKTSIKGRNFI,-0.259 ± 0.45
7,IRSPDAVNSNCATPRMRVY,0.499 ± 0.36
8,FFDNPMHKTYSGSAARARLS,-0.375 ± 0.24
9,CLEMFLKLCSLECARMKLPR,5.673 ± 0.04
10,AKVSSMVQECNLYLELETRL,inactive
11,FRNNKLYIRVYRSKWTE,-1.22 ± 1.1
12,LNWGSNIQAGVHTSRPWGSY,0.248 ± 0.43
13,LSPPYYYHMNCLPYNMSIWP,2.39 ± 0.09
14,MLSEADNLRRSYRHRIYEFI,-0.874 ± 0.76
15,FCLFQRDKTHSVWMGLKKFQ,-1.06 ± 0.78
16,RCGSHMNLRYISAR,4.398 ± 0.04
17,FYLGVALVHNKAWLFLWKDD,inactive
18,VKVGSSTRRGSGVPSGPKLG,1.04 ± 0.52
19,LSRIRVHSIRLYSVFPVMFC,3.67 ± 0.072
20,VPRFPA,inactive
21,EGLQFRCLRNSEILVCGYFS,0.466 ± 0.54
22,IYSGETYKTWLFHGINV,-1.4 ± 0.62
23,CAIFVRERW,5.03 ± 0.089
24,VHDQIPE,0.071 ± 0.79
25,YDSFMVGVCYAG,-1.42 ± 1.1

row,Substance,amyloid nucleation score
1,IMHSLLRSGN,inactive
2,FTILRDFC,0.152 ± 0.77
3,NCHFTCMPAACGETVKTY,0.597 ± 0.45
4,KVGDQLQLRTSATV,0.459 ± 0.22
5,HMTSS,-0.495 ± 0.33
6,MDGNDYAVVR,0.861 ± 0.23
7,IMTDPRSSLSLWCLNLSVNG,4.88 ± 0.082
8,IARRLTMGLTRMM,1.56 ± 0.18
9,GHKDSEDGLNTKFFRRSN,inactive
10,LRIGRYQN,inactive
11,DNDYTWIKFLKCGRADASGT,0.157 ± 0.5
12,YMVDIGSHYKVCVMFHWTFS,-0.88 ± 0.45
13,LRAWDYRISNSHTRLDIDFT,inactive
14,GMKCAAFSESVNHRLQFNGT,-0.345 ± 0.33
15,RKNSLHTMWMGKMVCSCFKL,5.69 ± 0.063
16,CTFHFVSGHTTTGSR,1 ± 0.66
17,MVCKLTFRRRCPMNRSRHQV,0.469 ± 0.43
18,NGFCYFDGLSLSYSKLTGMM,inactive
19,VSVKRGAPKVGSTGPVYTCG,-0.306 ± 0.5
20,YGNSYRG,-0.044 ± 0.55
21,VLYYTPRLSVERMGFHNMIY,-0.46 ± 1
22,YDLPFYAKEHGLPFVQWGNW,0.261 ± 0.22
23,ISVKFNEEACKFYDLCN,-0.294 ± 1
24,FLPNFSNVLFSLHPASKSGE,-0.218 ± 0.48
25,DFYSNEWRGDEICVQLLELV,0.393 ± 0.66

row,Substance,amyloid nucleation score
1,ILRTDMMINMDLLFGNVGNL,3.38 ± 0.089
2,CDILYLNMFAIFDFFDPVKL,inactive
3,WVTWLISCCYNRLEQGCLAF,0.097 ± 0.63
4,GVVEYRNFADSIVYGSRKFK,-0.685 ± 0.76
5,WRAIALLEARTGSRQ,1.08 ± 0.14
6,YGMVIRCPARVCVQTLFNNA,4.86 ± 0.094
7,SSSFLL,-0.545 ± 0.76
8,LISRL,-0.54 ± 1.1
9,RPDNSDV,-1.61 ± 0.54
10,QSSNLMGL,-0.338 ± 0.39
11,FFSVPGAWCDKWALALANY,-0.564 ± 0.38
12,GSHKK,-1 ± 1.1
13,RRISLLFTYYVRQSLSCLIV,4.94 ± 0.086
14,CCISMDVLWRLSEQP,6.385 ± 0.05
15,RYNILSSSATV,inactive
16,NRVFVVND,1.4 ± 0.2
17,MTVYLLIVLKFCFRRMSPEA,-0.255 ± 0.49
18,ANPTADP,0.578 ± 0.29
19,CYFSGSVSRTSVRLVLLSNG,-0.573 ± 1.1
20,FEGCCWVVGLLRLSG,8.713 ± 0.077
21,LFMACLIGIFFHVETTRCRW,2.5 ± 0.13
22,ETLSQIMFYVKIIAYDCRNP,2.66 ± 0.13
23,VRLNMFFSGEFCQGMQLWVS,inactive
24,NCPRWICAILYEYHAVRRRV,0.713 ± 0.49
25,TEGYNMCDWCSSSLVKSVRM,-0.223 ± 0.49

row,Substance,amyloid nucleation score
1,IVSAMQLEHESQCKFGMNWV,0.082 ± 0.42
2,TYGVLVNIGGWIDTFGWKLK,6.662 ± 0.049
3,YCSWFVWSTANVSMAYIVEF,-0.892 ± 0.41
4,EHLGIIAIRCAQIHKFLPEL,0.539 ± 0.36
5,FKQYFSYLVGLYRS,0.472 ± 0.8
6,LYETSMNDPMRVHHLRCEFI,-0.254 ± 0.56
7,EIHYMCELIMQWVYSGLTSR,0.607 ± 0.35
8,GQLNLGCWSYRGSRFWTWLR,inactive
9,VCQLQYILRNMLDKTRVSQD,0.912 ± 0.26
10,CMNGPFTLTRPTARGRIRC,0.32 ± 0.51
11,ASELLGYMCDIVASLGVVRY,0.747 ± 0.43
12,LQDYCACNGVSCCIVYCKSF,8.693 ± 0.053
13,RLGFISRSNLVANDVGKIFL,inactive
14,IIYLIGLTRARHWCRLRYEL,-0.063 ± 0.3
15,CSFRAFLWCILGGGENFNSS,2.91 ± 0.065
16,SMSCTTSASYHYLIS,0.697 ± 0.47
17,ENIISERAFS,inactive
18,HVVLNFCDTVWLMSKAP,9.03 ± 0.078
19,RRYYNAQHVVVYELEVESLS,0.453 ± 0.66
20,VNVSGSGSVPY,0.741 ± 0.27
